Measurements from paper PMC5350311.

Columns and labels:
[1] = biological target: protein phosphatase 1 (rabbit) (UniProt P62139)
[2] = biological target: protein phosphatase 1 (rabbit) (UniProt P62139); remark: listed apart in the source

Chain of UniProt P62139 (P62139 whole entry): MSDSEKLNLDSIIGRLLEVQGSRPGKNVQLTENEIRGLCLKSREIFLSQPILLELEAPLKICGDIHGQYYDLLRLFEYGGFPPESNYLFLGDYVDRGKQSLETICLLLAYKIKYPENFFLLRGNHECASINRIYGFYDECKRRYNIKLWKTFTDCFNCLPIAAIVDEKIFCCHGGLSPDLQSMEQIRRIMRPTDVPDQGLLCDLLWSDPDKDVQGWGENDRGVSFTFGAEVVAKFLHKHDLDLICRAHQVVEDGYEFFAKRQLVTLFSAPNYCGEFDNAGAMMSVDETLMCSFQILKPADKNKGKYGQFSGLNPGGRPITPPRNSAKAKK

Substance	IC50 of inhibition of PP1 activity (colorimetric protein phosphatase inhibition assay, p-nitrophenyl disodium orthophosphate, 25.0°C, pH 7.4) [1] [μg/L]	IC50 of inhibition of PP1 activity (inhibition curves, colorimetric protein phosphatase inhibition assay) [2] [µM]
glutathione conjugate of MCLR (peptide)	86.6	86.6
glutathione conjugate of MCRR (peptide)	98.7	98.7
